Data reported in US20250388646A1.

Legend:
Assay in all cases: cell-based or functional assay
FAS-(41BB) construct = FAS-(41BB) construct (UniProt Q07011)
[1] = target: FAS-(CD27) Fas redirector
[2] = target: FAS-(MyD88-CD40) Fas redirector
[3] = target: dominant negative Fas receptor (dnFAS)

Measured: percentage of viable cells after 24 hours of exposure to CH11

FAS-(CD27) Fas redirector, sequence (chain, as listed by the source): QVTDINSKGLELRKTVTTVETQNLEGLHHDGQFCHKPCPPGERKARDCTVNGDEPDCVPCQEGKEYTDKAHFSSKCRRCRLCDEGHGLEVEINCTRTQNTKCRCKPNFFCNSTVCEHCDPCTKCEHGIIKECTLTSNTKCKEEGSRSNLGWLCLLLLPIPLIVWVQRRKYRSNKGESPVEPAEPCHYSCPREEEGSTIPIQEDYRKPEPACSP
UniProt Q07011, sequence (Q07011 other isoform, or with tags, fused parts or gaps): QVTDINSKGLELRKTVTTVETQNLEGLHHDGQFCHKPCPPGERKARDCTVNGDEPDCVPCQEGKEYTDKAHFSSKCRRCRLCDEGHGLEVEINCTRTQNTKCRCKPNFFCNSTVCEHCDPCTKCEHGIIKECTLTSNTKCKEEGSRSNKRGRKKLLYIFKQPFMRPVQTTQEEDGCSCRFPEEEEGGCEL
FAS-(MyD88-CD40) Fas redirector, sequence (chain, as listed by the source): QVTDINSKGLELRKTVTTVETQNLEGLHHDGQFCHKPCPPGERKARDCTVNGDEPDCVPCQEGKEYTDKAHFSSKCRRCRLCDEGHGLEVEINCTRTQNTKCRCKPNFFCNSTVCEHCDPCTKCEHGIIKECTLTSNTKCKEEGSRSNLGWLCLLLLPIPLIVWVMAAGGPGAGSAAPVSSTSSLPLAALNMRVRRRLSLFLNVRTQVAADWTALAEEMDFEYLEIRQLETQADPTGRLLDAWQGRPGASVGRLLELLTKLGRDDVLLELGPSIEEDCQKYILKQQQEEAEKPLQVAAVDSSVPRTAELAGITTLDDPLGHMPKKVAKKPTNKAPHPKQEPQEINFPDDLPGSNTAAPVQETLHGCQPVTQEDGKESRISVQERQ

CH11 (Sigma-Aldrich), a Fas agonist (antibody)
> 60%: all assays above
